Laboratory results as given in patent US20230265167A1, “COMPOSITIONS HAVING NEUROREGENERATIVE APPLICATIONS” (GRIFOLS WORLDWIDE OPERATIONS LIMITED, priority 2020, published 2023).

System: SH-SY5Y cells
Experiment: Neurite outgrowth (differentiation) in SH-SY5Y cells, Tubulin Tracker imaging
Assay type: cell-based, human
Experimental: Transferrin is utilized in cell culture and in-vivo to deliver iron as a nutrient to cells. This is typically accomplished through the actions of holo-transferrin (HoloTf) binding to, and endocytosis by, its cognate receptor CD71, the transferrin receptor 1 (TfR1). Transferrin is typically believed to provide cells with iron as a means to promote and sustain metabolic activity. […] Induction of neuronal differentiation was assessed by morphological parameters of neurite formation (a key element typically used as a marker of neuronal differentiation, neuronal health, and function) according to the procedures of Agholme, 2010. J. of Alzheimer's Disease. Vol. 20:1p 069-108; and Dyberg et al., 2017. PNAS Vol 114 (32), E6603-E6612.
Undifferentiated SH-SY5Y cells were seeded into 96 well clear bottom plates in media containing 0.1% FBS. A serum-free base media was utilized as recommended by the supplier for SH-SY5Y cells (Sigma, Cat #94030304-1VL). Twenty-four hours after seeding cells, a 3× stock solution of ApoTf, final concentrations indicated on the x-axis, in serum free base media was added to the cells. ApoTf was obtained and purified from pooled human plasma and dosed at a final concentration of 0.2 mg/mL.
Cells were allowed to differentiate for 6 days. Neurite growth was assessed by imaging and image analysis. […]
After obtaining images, the MetaExpress Neurite Outgrowth analysis module (Molecular Devices) was used to identify cells, cell bodies, and quantify neurites. […] The Outgrowth Fold Change was determined by setting the untreated control cells to a value of 1 with all other treatments shown relative to untreated control.
Undifferentiated SH-SY5Y cells were seeded and treated as described in Example 1. Neurite growth was assessed by imaging and image analysis. […] After obtaining images, the MetaExpress Neurite Outgrowth analysis module (Molecular Devices) was used to identify cell bodies and quantify neurites. […] The Outgrowth Fold Change was determined by setting the untreated control to a value of 1 with all other treatments shown relative to untreated control. […]

B1: N-mut rec ApoTf: Y95F/Y188F Transferrin N-lobe mutant protein, SEQ ID 4, reduced iron-binding capacity (protein)
chain: VPDKTVRWCAVSEHEATKCQSFRDHMKSVIPSDGPSVACVKKASYLDCIRAIAANEADAVTLDAGLVYDAYLAPNNLKPVVAEFYGSKEDPQTFFYAVAVVKKDSGFQMNQLRGKKSCHTGLGRSAGWNIPIGLLYCDLPEPRKPLEKAVANFFSGSCAPCADGTDFPQLCQLCPGCGCSTLNQYFGFSGAFKCLKDGAGDVAFVKHSTIFENLANKADRDQYELLCLDNTRKPVDEYKDCHLAQVPSHTVVARSMGGKEDLIWELLNQAQEHFGKDKSKEFQLFSSPHGKDLLFKDSAHGFLKVPPRMDAKMYLGYEYVTAIRNLREGTCPEAPTDECKPVKWCALSHHERLKCDEWSVNSVGKIECVSAETTEDCIAKIMNGEADAMSLDGGFVYIAGKCGLVPVLAENYNKSDNCEDTPEAGYFAVAVVKKSASDLTWDNLKGKKSCHTAVGRTAGWNIPMGLLYNKINHCRFDEFFSEGCAPGSKKDSSLCKLCMGSGLNLCEPNNKEGYYGYTGAFRCLVEKGDVAFVKHQTVPQNTGGKNPDPWAKNLNEKDYELLCLDGTRKPVEEYANCHLARAPNHAVVTRKDKEACVHKILRQQQHLFGSNVTDCSGNFCLFRSETKDLLFRDDTVCLAKLHDRNTYEKYLGEEYVKAVGNLRKCSTSSLLEACTFRRP
modifications: Y95F/Y188F mutant
B1 was tested, and the “neurogenesis (neurite outgrowth) of SH-SY5Y” value (FIG. 3B, proteins at 0.2 mg/mL) was “almost equal to that of ApoTf and rec ApoTf at inducing differentiation”.

B2: apo-lactoferrin: structural and functional homologue of apo-transferrin, obtained from Athens Research & Technology (protein, UniProt P02788 20-710, looked up)
Lactotransferrin: GRRRSVQWCAVSQPEATKCFQWQRNMRKVRGPPVSCIKRDSPIQCIQAIAENRADAVTLDGGFIYEAGLAPYKLRPVAAEVYGTERQPRTHYYAVAVVKKGGSFQLNELQGLKSCHTGLRRTAGWNVPIGTLRPFLNWTGPPEPIEAAVARFFSASCVPGADKGQFPNLCRLCAGTGENKCAFSSQEPYFSYSGAFKCLRDGAGDVAFIRESTVFEDLSDEAERDEYELLCPDNTRKPVDKFKDCHLARVPSHAVVARSVNGKEDAIWNLLRQAQEKFGKDKSPKFQLFGSPSGQKDLLFKDSAIGFSRVPPRIDSGLYLGSGYFTAIQNLRKSEEEVAARRARVVWCAVGEQELRKCNQWSGLSEGSVTCSSASTTEDCIALVLKGEADAMSLDGGYVYTAGKCGLVPVLAENYKSQQSSDPDPNCVDRPVEGYLAVAVVRRSDTSLTWNSVKGKKSCHTAVDRTAGWNIPMGLLFNQTGSCKFDEYFSQSCAPGSDPRSNLCALCIGDEQGENKCVPNSNERYYGYTGAFRCLAENAGDVAFVKDVTVLQNTDGNNNEAWAKDLKLADFALLCLDGKRKPVTEARSCHLAMAPNHAVVSRMDKVERLKQVLLHQQAKFGRNGSDCPDKFCLFQSETKNLLFNDNTECLARLHGKTTYEKYLGPQYVAGITNLKKCSTSPLLEACEFLRK
modifications: iron-free apo form
notes: structural and functional homologue of apo-transferrin, obtained from Athens Research & Technology
With B2 the “neurogenesis / differentiation of SH-SY5Y” value (FIG. 4, proteins at 0.2 mg/mL) was “induced differentiation”.

B3: BDNF: brain-derived neurotrophic factor; NGF superfamily; SEQ ID NO: 6 (protein, listed as Homo sapiens)
chain: MFHQVRRVMTILFLTMVISYFGCMKAAPMKEANIRGQGGLAYPGVRTHGTLESVNGPKAGSRGLTSLADTFEHVIEELLDEDQKVRPNEENNKDADLYTSRVMLSSQVPLEPPLLFLLEEYKNYLDAANMSMRVRRHSDPARRGELSVCDSISEWVTAADKKTAVDMSGGTVTVLEKVPVSKGQLKQYFYETKCNPMGYTKEGCRGIDKRHWNSQCRTTQSYVRALTMDSKKRIGWRFIRIDTSCVCTLTIKRGR
For B3, the “differentiation of SH-SY5Y, factor alone” value (FIGS. 7A-7D, BDNF 25 ng/mL, GDNF 1000 ng/mL, CNTF 250 ng/mL, PACAP 200 nM) was “differentiation was not induced”.
